T1: Tie1-EpoR chimeric receptor (UniProt P14753+P35590)
T1 construct: PCR amplified extracellular part of human Tie1 (bp 37-2316 of X60975); expressed in transfected cells
T1 sequence (P35590+P14753 with tags, fused parts or gaps): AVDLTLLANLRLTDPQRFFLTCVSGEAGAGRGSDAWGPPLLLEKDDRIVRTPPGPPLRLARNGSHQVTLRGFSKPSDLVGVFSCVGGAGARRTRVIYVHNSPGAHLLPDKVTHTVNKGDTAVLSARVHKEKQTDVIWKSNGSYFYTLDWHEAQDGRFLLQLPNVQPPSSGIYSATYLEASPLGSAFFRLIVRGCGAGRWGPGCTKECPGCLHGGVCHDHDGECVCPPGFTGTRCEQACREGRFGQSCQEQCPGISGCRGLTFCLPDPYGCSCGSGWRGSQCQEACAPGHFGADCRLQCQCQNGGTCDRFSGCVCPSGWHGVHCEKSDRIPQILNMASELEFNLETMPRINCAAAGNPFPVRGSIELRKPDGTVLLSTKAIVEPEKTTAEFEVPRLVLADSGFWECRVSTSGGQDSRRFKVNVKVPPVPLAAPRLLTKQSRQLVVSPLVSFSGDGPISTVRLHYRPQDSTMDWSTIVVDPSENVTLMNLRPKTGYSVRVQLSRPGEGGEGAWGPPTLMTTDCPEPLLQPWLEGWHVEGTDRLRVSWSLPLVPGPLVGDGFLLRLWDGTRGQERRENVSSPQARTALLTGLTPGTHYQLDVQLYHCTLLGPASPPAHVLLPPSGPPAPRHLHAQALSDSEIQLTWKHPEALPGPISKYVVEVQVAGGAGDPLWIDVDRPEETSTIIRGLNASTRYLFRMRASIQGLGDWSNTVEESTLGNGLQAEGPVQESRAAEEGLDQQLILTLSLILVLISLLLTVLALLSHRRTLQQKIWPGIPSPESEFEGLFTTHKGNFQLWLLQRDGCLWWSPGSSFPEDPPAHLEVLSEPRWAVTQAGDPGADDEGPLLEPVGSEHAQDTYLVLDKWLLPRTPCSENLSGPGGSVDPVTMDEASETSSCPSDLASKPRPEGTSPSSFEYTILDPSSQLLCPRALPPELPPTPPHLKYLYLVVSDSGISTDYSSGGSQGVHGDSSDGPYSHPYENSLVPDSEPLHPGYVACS


Assays:
[1] = target: T1, Tie1-EpoR chimeric receptor; test: BaF3 bioassay (Tie1/EpoR chimeric BaF3 cell assay); assay type: cell-based, human; conditions: 100 ng/ml E3 IgG together with 100 (1:1) or 500 (1:5) ng/ml test antibody
From the text: BaF3 bioassay. To generate Tie1-EpoR expressing BaF3 cells for the bioassay, BaF3 pre-B cells were stably transfected with a nucleic acid that expresses chimeric receptor containing the extracellular domain of human Tie1 fused with the transmembrane and cytoplasmic domains of the mouse erythropoietin receptor. The nucleic acid used was a Tie1-EpoR chimeric cDNA in a pEF-BOS expression vector. The nucleic acid encoding the chimeric receptor was constructed by cloning the PCR amplified extracellular part of human Tie1 (bp 37-2316 of X60975) as EcoRI-BglII fragment into mEpoR-pcDNA vector. The cDNA encoding for the chimeric receptor consisting of the extracellular part of Tie1 fused with the transmembrane and intracellular domains of EpoR was subcloned into the pEF-BOS expression vector. Vector was linearized and co-transfected into BaF3 cells with pcDNA3.1(+) Zeo vector (Invitrogen). Stable cell pools were generated by selection with 250 μg/ml Zeocin. The expression of Tie1/EpoR fusion protein in several clones was analyzed by Western blotting with an antibody against EpoR.
To perform the assays, BaF3 cells expressing the Tie1-EpoR chimera were split in 96-well microtiter plates at 50 000 cells/well in the presence of the indicated concentrations of anti-Tie1 antibodies. The E3 antibody used in this study was the germ-lined E3 antibody (DX-2220). As controls, Zeocin resistant pools not expressing the Tie1-EpoR were used. After 48 h, the viability of the cells was determined by adding MTT (3-(4,5-dimethylthiazol-2-yl)-2,5-diphenyl tetrazolium bromide (Sigma), 0.5 mg/ml), followed by further 2 h of culture, addition of an equal volume of cell lysis solution (10% SDS, 10 mM HCl) and incubation overnight at 37° C. Absorbance was measured at 540 nm.
Stimulation and inhibition of Tie1 in Tie1-EpoR transfected BaF3 cells and human primary endothelial cells. Although no ligand for Tie1 has been identified, we used the following efficient screening method for Tie1-binding proteins. Interleukin-3 dependent pre-B-lymphocyte (BaF3) cells were transfected with a construct that expresses a Tie1-EpoR fusion protein. Since BaF3 cells are IL-3 dependent, they die unless IL-3 is provided. However, Tie-EpoR receptor expressing BaF3 cells can survive and proliferate if the medium contains a Tie1-binding protein, either a natural ligand or an artificial mimetic. Cell survival can be quantitated, e.g., by colorimetric MTT-assay, which measures mitochondrial activity.
To determine if any of the other monoclonal antibodies tested inhibit the survival effect of E3 IgG in Tie1-EpoR BaF3 assay, antibodies were studied in combination with E3 IgG. A concentration of 100 ng/ml of E3 IgG together with 100 (1:1) or 500 (1:5) ng/ml of the other antibodies were used and the viability of Tie1-EpoR cells was measured.

Tie1 = Tie1 (Homo sapiens, UniProt P35590); test: Competition with E3 for binding to Tie1
Chain of Tie1 (P35590 22-1138): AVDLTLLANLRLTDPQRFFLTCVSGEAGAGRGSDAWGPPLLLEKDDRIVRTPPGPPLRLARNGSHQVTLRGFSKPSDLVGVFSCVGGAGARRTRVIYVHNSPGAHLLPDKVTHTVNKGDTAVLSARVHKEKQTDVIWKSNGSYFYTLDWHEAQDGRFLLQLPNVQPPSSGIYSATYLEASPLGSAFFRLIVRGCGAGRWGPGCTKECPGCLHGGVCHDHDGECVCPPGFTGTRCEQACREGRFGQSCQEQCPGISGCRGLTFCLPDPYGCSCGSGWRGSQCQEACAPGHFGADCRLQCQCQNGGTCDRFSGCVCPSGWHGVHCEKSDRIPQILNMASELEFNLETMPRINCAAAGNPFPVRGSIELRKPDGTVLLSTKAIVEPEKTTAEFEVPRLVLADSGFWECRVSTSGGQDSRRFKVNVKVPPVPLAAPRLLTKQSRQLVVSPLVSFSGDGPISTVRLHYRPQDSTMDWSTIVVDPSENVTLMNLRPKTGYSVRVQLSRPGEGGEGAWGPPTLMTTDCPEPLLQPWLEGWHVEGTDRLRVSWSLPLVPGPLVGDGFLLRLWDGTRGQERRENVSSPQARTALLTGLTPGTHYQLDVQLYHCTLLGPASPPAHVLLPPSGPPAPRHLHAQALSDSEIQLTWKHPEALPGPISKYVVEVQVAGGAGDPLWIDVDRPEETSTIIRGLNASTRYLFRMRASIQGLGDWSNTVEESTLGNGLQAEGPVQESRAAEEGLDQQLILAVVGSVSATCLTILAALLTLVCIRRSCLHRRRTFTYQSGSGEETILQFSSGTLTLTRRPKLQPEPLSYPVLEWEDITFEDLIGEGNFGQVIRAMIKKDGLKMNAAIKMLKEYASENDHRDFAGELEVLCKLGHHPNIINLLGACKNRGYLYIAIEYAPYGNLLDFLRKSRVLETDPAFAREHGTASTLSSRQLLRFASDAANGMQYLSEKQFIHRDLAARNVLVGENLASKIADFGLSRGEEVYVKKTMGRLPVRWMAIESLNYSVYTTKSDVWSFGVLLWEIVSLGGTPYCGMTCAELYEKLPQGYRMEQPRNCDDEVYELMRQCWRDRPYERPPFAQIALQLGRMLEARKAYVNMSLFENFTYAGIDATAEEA

Row | Molecule | effect on the survival effect of E3 IgG in Tie1-EpoR BaF3 assay [1] | competition with E3 for binding to Tie1 (Tie1)
1 | P-B1: anti-Tie1 antibody clone; variable domains in FIGS. 11A and 11B (antibody, V domains shown) VH: EVQLLESGGGLVQPGGSLRLSCAASGFTFSRYPMVWVRQAPGKGLEWVSVISPSGGQTFYADSVKGRFTISRDNSKNTLYLQMNSLRAEDTAVYYCARGVLTTAFDIWGQGTMVTVSSASTKGPSVFPLAPSSK VL: QDIQMTQSPSSLSASVGDRVTITCRASQNINSYLNWYQQKPGQAPKLLIYAASNLETAVPSRFSGSGSGTDFTLTISSLQPEDFATYYCQQFNTYPLTFGGG | inhibited the viability effect of E3 IgG to some extent | –
2 | C7: anti-Tie1 antibody clone; variable domains in FIGS. 25A and 25B (antibody, V domains shown) VH: EVQLLESGGGLVQPGGSLRLSCAASGFTFSRYVMYWVRQAPGKGLEWVSVIYPSGGATYYADSVKGRFTISRDNSKNTLYLQMNSLRAEDTAVYYCARRGSSGAFDYWGQGTLVTVSSASTKGPSVFP VL: HSAQSVLTQPASVSGSPGQSITISCTGTSSDIGRYNYASWYQQRPGKSPKLLIYEVSDRPSGVSNRFSGSKSGNTASLIISGLQAEDEADYYCSSYSSTNSLQVVFGGGTKLSVLGQPKAAPSVTLFPPSSEELQANKATLVCL | promoted the survival of Tie1/EpoR BaF3 cells in combination with E3 IgG | –
3 | M0056G08: Tie1-binding antibody; LC SEQ ID NO:568, HC SEQ ID NO:570 (antibody, V domains shown, Antibody) VH: EVQLLESGGGLVQPGGSLRLSCAASGFTFSHYGMWWVRQAPGKGLEWVSVISPSGGQTNYADSVKGRFTISRDNSKNTLYLQMNSLRAEDTAVYYCAKGQIHGGNLASWGQGTLVTVSS VL: QDIQMTQSPGTLSLSPGERATLSCRASQSISSSYLAWYQQKPGQAPRLLLYGTSNRATGIPDRFSGSGSGTDFTLTISRLEPEDFALYYCQQRYKWPLTFGPGTKVDFK | – | competes with E3 for binding to Tie1
4 | M0053F04: Tie1-binding antibody; LC SEQ ID NO:392, HC SEQ ID NO:394 (antibody, V domains shown, Antibody) VH: EVQLLESGGGLVQPGGSLRLSCAASGFTFSGYGMYWVRQAPGKGLEWVSVISPSGGYTHYADSVKGRFTISRDNSKNTLYLQMNSLRAEDTAVYYCARAYSSGWYLDYWGQGTLVTVSS VL: QDIQMTQSPATLSLSPGERATLSCRASQSVSSYLAWYQQKPGQAPRLLIYDTSNRATGIPARFSGSGSGTDFTLTISSLEPEDFAVYYCQQRSNWPITFGQGTRLEIK | – | competes with E3 for binding to Tie1
5 | M0044B08: Tie1-binding antibody; LC SEQ ID NO:180, HC SEQ ID NO:182 (antibody, V domains shown, Antibody) VH: EVQLLESGGGLVQPGGSLRLSCAASGFTFSAYGMGWVRQAPGKGLEWVSVISPSGGQTSYADSVKGRFTISRDNSKNTLYLQMNSLRAEDTALYYCAGGDRYGPLHYWGQGTLVTVSS VL: QDIQMTQSPSFLSASVGDRVTISCRASQYISIYLNWYQQRPGEAPKLLINAASSLQSGDPSRFSGSGSGTDFTLTINSLQPDDFATYYCQQYKSYPLTFGEGTKVEIK | – | competes with E3 for binding to Tie1
6 | A2: anti-Tie1 antibody clone; variable domains in FIGS. 20A and 20B (antibody, V domains shown) VH: EVQLLESGGGLVQPGGSLRLSCAASGFTFSRYTMMWVRQAPGKGLEWVSGIYPSGGVTLYADSVKGRFTISRDNSKNTLYLQMNSLRAEDTAVYYCARVNYYDSSGYGPIAPGLDYWGQGTLVTVSSASTKGPSVFP VL: HSAQDIQMTQSPGTLSLSPGERATLSCRASRSVIISYVAWYQQKPGQAPRLLIYGASTRATGIPDRFSGSGSGTDFTLTISRLEPEDFAVYFCQLYGRSPRIIFGQGTRLEIK | inhibited the viability effect of E3 IgG to some extent | –
7 | A10: anti-Tie1 antibody clone; variable domains in FIGS. 21A and 21B (antibody, V domains shown) VH: EVQLLESGGGLVQPGGSLRLSCAASGFTFSNYVMVWVRQAPGKGLEWVSGIYPSGGHTKYADSVKGRFTISRDNSKNTLYLQMNSLRAEDTAVYYCARVNYYDSSGYGPIAPGLDYWGQGTLV VL: HSAQDIQMTQSPGTLSLSPGERATLFCRASQRVTSNSLAWYQQRPGQAPRLLIYDASTRATGIPDRFSGSGSGRDFTLTISRLEPEDFAVYYCQRYGSSVLYSFGQGTKLEIT | inhibited the viability effect of E3 IgG to some extent | –
8 | M0045B03: Tie1-binding antibody; LC SEQ ID NO:260, HC SEQ ID NO:262 (antibody, V domains shown, Antibody) VH: EVQLLESGGGLVQPGGSLRLSCAASGFTFSQYPMIWVRQAPGKGLEWVSVISPSGGHTSYADSVKGRFTISRDNSKNTLYLQMNSLRAEDTAVYYCARIQYYGGAFDIWGQGKMVTVSS VL: QDIQMTQSPDTLSLSPGERATLSCRASQSISRYLAWYQQRPGQAPSLLIYDASERAAGIPARFSGSGSGTDFTLTISSLEPEDFAVYYCQQRGNWPLTFGGGTKVDIR | – | competes with E3 for binding to Tie1
9 | P-B3: anti-Tie1 antibody clone; variable domains in FIGS. 12A and 12B (antibody, V domains shown) VH: EVQLLESGGGLVQPGGSLRLSCAASGFTFSRYGMHWVRQAPGKGLEWVSVISPSGGMTYYADSVKGRFTISRDNTKNTLYLQMNSLRAEDTAVYYCARVGATGPFDIWGQGTMVTVSSASTKGPSVFPLAP VL: QDIQMTQSPATLSLSPGERATLSCRASQSVSTYLAWYQQKPGQAPRLLIYDASNRATGIPGRFSGSGSGTDFTLTISSLEAEDFAVYYCQQRSSWPITFGQG | inhibited the viability effect of E3 IgG to some extent | –
10 | P-C6: anti-Tie1 antibody clone; variable domains in FIGS. 13A and 13B (antibody, V domains shown) VH: EVQLLESGGGLVQPGGSLRLSCAASGFTFSHYGMTWVRQAPGKGLEWVSVISPSGGQTGYADSVKGRFTISRDNSKNTLYLQMNSLRAEDTAVYYCAGGGYAAFDYWGQGTLVTVSSASTKGPSVFPLAPSSKSTSGGTAALG VL: QDIQMTQSPATLSLSPGERATLSCRASQSVSSYLAWYQQKPGQAPRLLIYDASNRATGIPARFSGSGSGTDFTLTISSLEPEDFAVYYCQQRSNWPLTFGGG | inhibited the viability effect of E3 IgG to some extent | –

Reference: patent US20100196361A1, “Method of inhibition of vascular development using an antibody” (DYAX CORP., priority 2003, published 2010)
